The target of the experiment is NSUN4 (residues 26–384) (human, UniProt Q96CB9 26-384). Description: ITC.

The results in this text go back to paper PMC3496059 (Structure (London, England : 1993), 2012).

Chain of NSUN4 (residues 26–384) (Q96CB9 26-384): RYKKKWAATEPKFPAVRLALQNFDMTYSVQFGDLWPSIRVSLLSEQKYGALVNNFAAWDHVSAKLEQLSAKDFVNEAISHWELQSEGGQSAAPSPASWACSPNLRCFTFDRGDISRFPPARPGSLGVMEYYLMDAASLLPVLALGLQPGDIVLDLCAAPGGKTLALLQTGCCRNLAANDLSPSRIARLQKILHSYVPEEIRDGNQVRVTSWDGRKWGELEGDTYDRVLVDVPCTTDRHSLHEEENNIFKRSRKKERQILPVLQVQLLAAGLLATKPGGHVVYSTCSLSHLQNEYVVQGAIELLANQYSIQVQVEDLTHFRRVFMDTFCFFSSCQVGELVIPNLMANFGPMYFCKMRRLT

B1: MTERF4 (residues 66–332) (domain or fragment, human, UniProt Q7Z6M4 66-332, looked up)
chain: EPECRRNLVQCLLEKQGTPVVQGSLELERVMSSLLDMGFSNAHINELLSVRRGASLQQLLDIISEFILLGLNPEPVCVVLKKSPQLLKLPIMQMRKRSSYLQKLGLGEGKLKRVLYCCPEIFTMRQQDINDTVRLLKEKCLFTVQQVTKILHSCPSVLREDLGQLEYKFQYAYFRMGIKHPDIVKSEYLQYSLTKIKQRHIYLERLGRYQTPDKKGQTQIPNPLLKDILRVSEAEFLARTACTSVEEFQVFKKLLAREEEESESSTS
For the molecule B1, the Kd was determined as 13.3 ± 0.4 nM, the dH is -11 ± 0.22 kcal/mol and the “stoichiometry N” value was determined as 1.08 ± 0.02.

The Kd is a measure of binding affinity in units of concentration. As usually defined, the stoichiometry N is a count of units in the complex or per binding partner.
